These results are taken from publication PMC5984625, “Dynamic structural states of ClpB involved in its disaggregation function” (Nature Communications, 2018).

Series [1] concerns the molecule itself. Description: native MS; incubated at 55 °C with 2 mM ATP or ATPγS for 1 min, exchanged into 150 mM ammonium acetate pH 7.5 with 100 µM ATP or ATPγS at 4 °C; nanoflow electrospray.
Series [2] concerns the molecule itself. Description: AUC; sedimentation velocity, 20 °C, 42,000 rpm, 50 mM MOPS pH 7.5, 50 mM KCl, 5 mM MgCl2, 0.5 and 2.0 mg/mL protein, with 2 mM ATPγS (preincubated 55 °C 1 min).
Series [3] concerns the molecule itself. Description: AUC; sedimentation velocity, 20 °C, 42,000 rpm, 50 mM MOPS pH 7.5, 50 mM KCl, 5 mM MgCl2, 0.5 and 2.0 mg/mL protein, with 20 mM ADP (preincubated 55 °C 1 min).
Series [4] deals with the molecule itself. Kind of series: AUC; sedimentation velocity, 20 °C, 42,000 rpm, 50 mM MOPS pH 7.5, 50 mM KCl, 5 mM MgCl2, 0.5 and 2.0 mg/mL protein, with 20 mM ATP (preincubated 55 °C 1 min).

B1: Full-length T. thermophilus ClpB (TClpB) (natural protein)
chain: not shown
notes: ClpB of Thermus thermophilus, full length, expressed from plasmid pMCB1; The protomer; it assembles into oligomers of varying size depending on the nucleotide; also called full-length TClpB; source: E. coli BL21(DE3) or KRX carrying pMCB1, purified
B1: the “stoichiometry N” value in series [1] is 2; in series [2] it was 6; in series [3], less than 6; in series [4] it was 3.
